Here are results for three substances from PMC10644352, “Bromodomain Factor 5 as a Target for Antileishmanial Drug Discovery” (ACS Infectious Diseases, 2023).

The target in experiment [1] is unlabeled pan-acetylated peptide based on the H2B(9-23) sequence of L. donovani histone H2B (Leishmania donovani). The experiment is described as follows: thermal shift assay; 2.1 μM BD5T, 2x SYPRO orange, peptide at 400 μM, 20 mM HEPES, 500 mM NaCl, pH 7.5; 25 to 95 °C; n = 6.
Experiment [2] deals with 5-FAM-labeled H2B(17-23)K19Ac K21Ac peptide of L. donovani histone H2B (Leishmania donovani). The experiment is described as follows: fluorescence polarisation; 800 nM 5-FAM peptide, protein 0-300 μM; 20 mM HEPES, 500 mM NaCl, 1 mg/mL BSA, pH 7.5; 30 min at room temperature; one-site-specific binding fit (two-site for BD5T); n = 3.
Experiment [3] deals with 5-FAM-labeled H2B(9-23)K9Ac K15Ac K19Ac K21Ac peptide of L. donovani histone H2B (Leishmania donovani). The description is as above.
The target in experiment [4] is 5-FAM-labeled H2B(8-16)K9Ac K15Ac peptide of L. donovani histone H2B (Leishmania donovani). The experiment is described as above.

Regarding “Leishmania donovani bromodomain factor 5 (LdBDF5) tandem bromodomain pair, recombinant BD5T (domain or fragment)”, the thermal shift (ΔTm) at 400 μM peptide in experiment [1] came to 0.6 °C.
With “Leishmania donovani bromodomain factor 5 (LdBDF5) first bromodomain, recombinant BD5.1 (domain or fragment)”, the Kd in experiment [2] is 77.5 µM; in experiment [3], 117 µM; in experiment [4], 170 µM.
On the same counts, the results for “Leishmania donovani bromodomain factor 5 (LdBDF5) second bromodomain, recombinant BD5.2 (domain or fragment)” are 160 µM, 463 µM and 366 µM.
